This data set can be described thus: soluble on expression in E. coli; label from the status in PepcDB or PDB records.
In the case of “MSLTEIRLVDVTMRDGNQSLWGATGLNTAHMLQAAALTEACGFRAIDFTSSSHMAVAVRYFQNNPWERLRRMAAAMPTTPLQFITTGLRFIAWQQADPEFMRLVYRALQANGVGRFVLLDPMHEVPAVIEAAKLVKEEGNAEVMAALTFTLSEIHTDQFYADFARAVGQSPNIDLFYIKDPAGLLSVDRARTLVPAVKAVIGNRPLEIHAHTTVGQGMMASLEAAKLGISAIHVGVGPGGDGSSLPEANRMVANLEEAGFSVGVDKAALKRLTTYWERVALAEGLPPGTPQNFDASFLRHQIAGGVMTTIARQLDELGLSDRMGAVIEETGQVRADLGFPIMVTPFPQMVMTQALFNVIGERRYAQVSDQVIRYCMGKFGKPTSPVDREVLATIMDRPRSRELEDEPMFPALGDLRRQFGSHLPDEEFLLRAVMPGEQVDAMLAAGPSRATYSPQAAPILSLLRQLAARPDARDIVIEREGFRLALHAGASLEGHHHHHH”, the “soluble on expression in E. coli” value was “not soluble”.
For the sequence “MSLTENKELRDILGGYHDNIKSKIMENKLDEAIYLVDSLSATFKLPSSGYDRSSCTPYNNEVSEKYGIEEYVNASLIPTPRTLFIAAQNPKDEKRDVFTDLLMKSNTKLVVSLIDDPRYFEEEWLQDRKVIKYMNKDLFIDEIYNIRGRNIRRLRYINWVDFSVITREEMEVFHSYFDSVRTEVVLVHCIAGVGRTGTFIMYDILKRMENITLDTFIDVFLNLRSKRAHLVTNKIQLEFLKNIFLESEGHHHHHH”, the “soluble on expression in E. coli” value is “soluble”.
Next, “MSLTERVLVTGGGGFVACHLIQQLLASGNVVNTTVRNLTNRAKVLPLLTLQKQHPGKLYLFEADLLVDGAFDAPMHDCTVVHHVASPFLLPEKIKDGRREMLEPALLGTRNVLSSVDKTPSVLRVVMTSTVGAIFGDYIDVLHMKNKTLTEDYFNTSSTLETNPYHYAKVEAEKEAWRICEKQTRWSLVTINPGMILGPSLTPASDSGSLFLLDEMFRGYFFYGMPDLSLTTVDVRDVAAAHIIAANKVDAQGRYILAEQHMISFVEIAGIVRRLHRRPWLLPRYRIPDAIVRLIGPFFGLTQDYLSKHLGIRFVVDNQRSLNDLGIKYRSITETLTDHYRCWDMQRQLNEGHHHHHH”: “soluble”.
Turning to “MSLTESARIDGVSLYEIVIPMKIPFQISSGTCYTRRSLVVEIREGDLFGYGESAPFEEPFYLGETLETTKVILKNHLLPMILGKEPLSIEEFNHLIKNGIRGNHFARCGVENAYWDLIAKKNKISLKAMIEKKMKNLGVKQEYLASNNYIESGAALGIPEDGRIETLIHQVEESLQEGYRRIKIKIKPGWDVEPLQETRRAVGDHFPLWTDANSSFELDQWETFKAMDAAKCLFHEQPLHYEALLDLKELGERIETPICLDESLISSRVAEFVAKLGISNIWNIKIQRVGGLLEAIKIYKIATDNGIKLWGGTMPESGLGARFLISLASFRGFVFPADVAASEKWYGKGNDLVENTMTDGKIYVPDEPGASFDMTLSHLEALGKKIWESQRGEGHHHHHH”, the “soluble on expression in E. coli” value is reported as “soluble”.
Next, “MSLTFSILARDPNNGRFGVAVATCHLAVGSTVPHIRSGVGAVATQAHTNPYLGICGLERLEHHADAQDVLNSLLLDDPQRDWRQFHLIDLDGRTACWTGVECGGWAGHRHHPNLSVAGNCLAGEVVLEAMEQTFLTSDPNWKLGRRLMTALQAGEQAGGDQRASSCTSAALQVSGEAAFPLLDLRVDFRSGAVEELMELYERSQDRWAQQWRDELLELPMLNRLVAEGHHHHHH”: “soluble”; “MSLTHAILFDLDGTLVDHASAARAALHAWSPTVGVDTDVERWIELDKWGFARFERGETTHLGQRRDRIRAYLNRELDDATCDDIYSGYLKAYEQNWTAYPDAKGVLDRAVATGAPVGILTNGAAPMQQDKLDRTGLGLPELVMLAASTLDSAKPRPEMYARALTHLGARTATIIGDDWTNDVAAPRELGWNALYLDRSGTDPRADIHSLDELFHEGHHHHHH”: “soluble”; “MSLTHCKNQHCGGELGDYTGYIESPNYPGDYPANAECVWHIAPPPKRRILIVVPEIFLPIEDECGDVLVMRKSASPTSITTYETCQTYERPIAFTSRSRKLWIQFKSNEGNSGKGFQVPYVTYDEDYQQLIEDIVRDGRLYASENHQEILKDKKLIKALFDVLAHPQNYFKYTAQESKEMFPRSFIKLLRSKVSRFLRPYKEGHHHHHH”: “not soluble”.
Take “MSLTIYLMRHGQTYFNLWHKIQGWTDSPLTEEVIKQAKEIGRYFRENNINFDKGYSSTSERASDTLELATDHQLPYRRLKGLKEEYFGSFEAEDERLNPPVPYEDFFVKYGGESEDQVKMRMHDTMLKIARENADNSNILIVSHAGAIFNFLSTINMSIDQLFKIGFTNASVAKIEFKNDQFKVVEIINKKNNKFEVTQVNEGHHHHHH”: the “soluble on expression in E. coli” value was “soluble”.
Turning to “MSLTKAYTIVIKLGSSSLVDESTKEPKLSIMTLIVETVTNLKRMGHKVIIVSSGGIAVGLDALNIPHKPKQLSEVQAIAAVGQGRLIARWNMLFSQYGEQTAQILLTRNDILRWNQYNNARNTINELLAMGVIPIVNENDTLSISEIEFGDNDTLSAITAALVGADFLFLLTDVDCLYTDNPRTNPDARPIVLVPELSEGLPGVNTSSGSGSEVGTGGMRTKLIAADLASNAGIETIVMKSDRPEYVPKIVDYIQHHFRPPRHIGNGTQQQFLDLQDTELEQLRRYDVPMHTKFLANDNKHKLKNREFWILHGLITKGAIIIDENSYDKLLSKDMASLTPNAVIEVRDNFHELECVDLKIGQRLPNGELDISKPIQSVGCVRSNYTSLELAKIKGLPSEKIHDVLGYSVSEYVAHRENIAFPPQFEGHHHHHH”, the “soluble on expression in E. coli” value is “not soluble”.
On to “MSLTLDELDSHLFKCADIIRDAVDPTDYKEYILPLVFYKAISDEYEQEREEIVEEYGEDFADNANLYDVPIVPEGHRWNDLRQESENVDEAINNAFTEFTQANPDLSGIFNANFMEAGGLTDDRLIKLVEHLSTYDLDRDSVPPDMLGEAYMDLVRHFAEEEGKSGGQFFTPPHIVQLCVRLVDDFADGMTFHDPTVGSGGMLTEAAKYYREAQGGDPSKLTFTGQEINPDIAAIARMNLSLHTLNGEIERGDSLASPGFTDGDDLERFDRVLANFPFSADWAKDDLQDDQYGRFDWHTKLPRADRGDYAFIMHIAEQLKEPDCGDESGGKAAIVIPHGVLFRKHEQRYRQPMLENDLVEAIVGLPENLFQNNSIPSAILVLNTDKPADREGEVQFIHAADEAFYEELSNQNELTDDGLDHIVENFDDWTTEERVSRTVGIEEIEENDFNLNIALYVDTTEPEEDIDVNEELAELRELQAEREEIESRMTEHMEALQYE”, for which the “soluble on expression in E. coli” value is reported as “soluble”.
With “MSLTLLKGRRKVDTIKVGILGYGLSGSVFHGPLLDVLDEYQISKIMTSRTEEVKRDFPDAEVVHELEEITNDPAIELVIVTTPSGLHYEHTMACIQAGKHVVMEKPMTATAEEGETLKRAADEKGVLLSVYHNRRWDNDFLTIKKLISEGSLEDINTYQVSYNRYRPEVQARWREKEGTATGTLYDLGSHIIDQTLHLFGMPKAVTANVMAQRENAETVDYFHLTLDYGKLQAILYGGSIVPANGPRYQIHGKDSSFIKYGIDGQEDALRAGRKPEDDSWGADVPEFYGKLTTIRGSDKKTETIPSVNGSYLTYYRKIAESIREGAALPVTAEEGINVIRIIEAAMESSKEKRTIMLEHEGHHHHHH”, the “soluble on expression in E. coli” value was “soluble”.
In the case of “MSLTMREVAKAAGVSIKTVSNVVNDYEFVSQATRDKVNKAIAELGYTVNVSARNLRRGQTGIIGLAIPDLQMPYFAQLSSLVIEEAKKVGLRVIVEPTQYSRDGELEALHGSQQMMIDGLIYSPLELGQDDVEQLKVDYPLVLVGERIFTDQVDHIATENVEGAKRATQYLLTTGCRRVAVVGVHPGEKVGSAALRYQGYLEALEEAGVEFDDRLVVESGMWHRSDGVRAMNALLDSGVEVDGVVALNDMLASGVMHAIQMHGLHIPDDISVVGFDNSDDSQYLSPALTSIAPGLEAVARLSVKVLKERIDGRDPNADRPGEKVFRKVASSLVVRQSTKLPIDSLVLEGHHHHHH”, the “soluble on expression in E. coli” value was “not soluble”.
For “MSLTNLPEDRTGEEIRDAIKIDGEAVRGHLDELVRSTVEETLNQMLDAEADQICKAKRYERSPDRVDSRAGSYSRKLQTKAGEVSLKVPQLRSLPLETQIIERYKRRESSVEEALVEMYLAGVSVRRVEDITEALWGTRVSSSTVSELNQKIYERIDVWRNRPLEGEHPYVMLDGIWLKRSWGGEVKNIAVLVAVGVRSDGHREILSVAEGTKEDSESWRTFLRHLKERGLQGVRLITSDKCLGLVEALGEFFPEAAWQRCIVHFYRNVLKDVPRSKSRDVAAMLKAVHAQEDRTAATEKAEQVAEKLASLRLGNAAKCFRAGVQETLAYMNFPREHWTRLRSNNMLERIMKEIRRRTRVVGAFPDGQSALMLVAARLRHIAGTHWGTRRYLDMDRLHEPEEREDHEGHHHHHH”, the “soluble on expression in E. coli” value is “soluble”.
“MSLTNQAYPMALVSQDSLDSYIRSVNGYPMLSADEERELAERLHYKGDIDAAKGLILSHLRFVVHVARGYSGYGLPMADLVQEGNIGLMKAVKRFNPEMGVRLVSFAVHWIKAEIHEYVLRNWRIVKIATTKAQRKLFFNLRKSKKRLGWFNNGEVETVARELGVEPAEVREMESRLAAQDAAFEMSAEDDENGMAYTAPVLYLEDKHSDLADNLEAENWEAHTTQRLSMALASLDERSQHIVRARWLDDDNKTTLQDLAEMYGVSAERIRQLEKNAMRKLKEAVGEEGHHHHHH”: the “soluble on expression in E. coli” value is “soluble”.
Then “MSLTPSIISIQSQVVHGHVGNSAAVLPMQGHGVTVAAVPTTLLSNHPGFETVRGRVLESELVGDLLRGVEERGLIETSGYIVSGYLGSRANGEVVASFVKRARRLNPDITYICDPVMGDAALGVFVADQVVSCLCDDLIPLADLLTPNQFEVGLIAGRPLSTWRELEAAVLKIRAPRGARLVVTGCALSDTPDGALENIVFDDKTHTRLTSPRLPLAPAGTGDLYTGLLTAKLARGHTLVEAACHAATSVLDVLQQTMAAGEHEMQLARAITTLGPACKETSEGHHHHHH”, with “soluble”.
With “MSLTPTELNLKAKALLETHFDDIVLSGEISKITLHGSGHWYFDLKDERSSIACAMFKGANLKVGFKPAVGDFLELCGSVSLYPESGRYQFIATSMKKAGFGDLEAQFLALKERLQKEGLFDPRFKKSLPKFPKKVGIITSKTSAALQDMLKLIHQKEYFLAKIYIFDALTQGNNAPFSLIQALKKADDMDLDVLIIARGGGSREDLFCFNDENLAREIFKAKTPIISAIGHEIDYVISDFVADFRAPTPSAAIDTLFYSKLDIEQSLDLMEEKLMQLWNYKIQNYENLLLNLSKFFKFNSLPKIIDEKIKQSHNIEKQLNHLLANQMRYNELKLDKLQNAYLQHENFFNKSKKFICIRKNGKIANLEDLKSDDIVILSSQTSQKEAKILEGHHHHHH”, the “soluble on expression in E. coli” value is “not soluble”.
For “MSLTQKPLTVVVGPPSAGKSTWVKAAAKASDLVIDLDILAPTVIGKPMWIADSRERSLVIRERNSLVAEYMRGKTAHPHCFLIDTAGSFKRRKFWLDRGADVVLLDTDKDICRARIRQCSARPESTRAGRLAAVDRWEEGHHHHHH”, the “soluble on expression in E. coli” value is listed as “soluble”.
